The text below walks through data of paper PMC10858482.

The experiment addresses SARS-CoV-2 Omicron BA.1 spike protein (SARS-CoV-2 (Omicron BA.1)) (UniProt P0DTC2). The experiment in a line: cryo-EM structure; Tr67 and Omicron BA.1 spike mixed in a 1.5:1 weight ratio, 0.3 mg/ml; single-particle analysis, C3 symmetry, map at ~9 Å.

As to “SARS-CoV-2 Omicron BA.1 spike protein (from UniProt P0DTC2 14-1273) (natural protein)”, the stoichiometry N (commonly the number of molecules, sites or subunits per partner or assembly) was 3.
